From ChEMBL document CHEMBL5346942, “Identification and analysis of small molecule inhibitors of FosB from Staphylococcus aureus” (RSC Med Chem, 2023)
Calls of active or inactive are those of the source. The calls are words filed in the database; no cut-off is given here.

Experiments:
[1] = target: Metallothiol transferase FosB (Staphylococcus aureus) (UniProt Q5HDM4); experiment: Inhibition of Staphylococcus aureus FosB using L-cysteine as substrate by absorbance based DTNB assay
[2] = system: CC[C@@H](O)P(=O)(O)O; experiment: (§1) Binding affinity to Staphylococcus aureus FosB using L-cysteine as substrate assessed as Kcat/Km by DTNB assay based michaelis-menton analysis (reference value: 10.33 /mM/s)
[3] = system: C[C@@H](C(=O)O)P(=O)(O)O; experiment: as §1
[4] = system: CC(C)[C@H](O)P(=O)(O)O; experiment: as §1
[5] = system: C[C@H](CO)P(=O)(O)O; experiment: as §1
[6] = system: O=C(O)CP(=O)(O)O; experiment: as §1
[7] = system: CC[C@@H](O)P(=O)(O)O; experiment: (§2) Binding affinity to Staphylococcus aureus FosB using L-cysteine as substrate assessed as catalytic constant by DTNB assay based michaelis-menton analysis (reference value: 2.95 /s)
[8] = system: C[C@@H](C(=O)O)P(=O)(O)O; experiment: as §2
[9] = system: CC(C)[C@H](O)P(=O)(O)O; experiment: as §2
[10] = system: C[C@H](CO)P(=O)(O)O; experiment: as §2
[11] = system: O=C(O)CP(=O)(O)O; experiment: as §2
[12] = system: CC[C@@H](O)P(=O)(O)O; experiment: (§3) Binding affinity to Staphylococcus aureus FosB using L-cysteine as substrate assessed as Km by DTNB assay based michaelis-menton analysis (reference value: 0.29 +/- 0.03 mM)
[13] = system: C[C@@H](C(=O)O)P(=O)(O)O; experiment: as §3
[14] = system: CC(C)[C@H](O)P(=O)(O)O; experiment: as §3
[15] = system: C[C@H](CO)P(=O)(O)O; experiment: as §3
[16] = system: O=C(O)CP(=O)(O)O; experiment: as §3

Chain of Metallothiol transferase FosB (Staphylococcus aureus) (Q5HDM4 whole entry): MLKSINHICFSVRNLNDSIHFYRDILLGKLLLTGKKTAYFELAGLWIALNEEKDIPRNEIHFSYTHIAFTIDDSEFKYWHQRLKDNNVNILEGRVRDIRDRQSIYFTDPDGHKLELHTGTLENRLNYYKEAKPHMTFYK
Chain of Metallothiol transferase FosB (Staphylococcus aureus), Q5HDM4 (Q5HDM4 whole entry): as above

For `CC(C(=O)O)C(=O)O`, which inhibition [1] is on record?
The inhibition was “inactive”.

`O=C(O)CCP(=O)(O)O` was tested. Which inhibition [1] did it give?
Its inhibition is “inactive”.

How did the inhibition [1] turn out when `O=P(O)(O)CCP(=O)(O)O` was run?
Its inhibition is “inactive”.

Which results are given for “Metallothiol transferase FosB (Staphylococcus aureus), Q5HDM4”?
kcat/Km [2]: 11.4 mM⁻¹ s⁻¹; kcat/Km [3]: 11.3 mM⁻¹ s⁻¹; kcat/Km [4]: 11.2 mM⁻¹ s⁻¹; kcat/Km [5]: 10.7 mM⁻¹ s⁻¹; kcat/Km [6]: 11.8 mM⁻¹ s⁻¹; kcat [7]: 2.82 s⁻¹; kcat [8]: 2.84 s⁻¹; kcat [9]: 2.84 s⁻¹; kcat [10]: 2.91 s⁻¹; kcat [11]: 2.83 s⁻¹; Km [12]: 250 µM; Km [13]: 250 µM; Km [14]: 250 µM; Km [15]: 270 µM; Km [16]: 240 µM
